From patent publication CN1542019A (CHINA ANTIBODY PHARMACY CO LTD, dated 2004)

T1: CD22抗原 (CD22 on Raji human lymphoma cells) (human, UniProt P20273 20-847)
T1 construct: whole, on cells; The assays are on Raji cells; also called Raji人淋巴瘤细胞; Raji细胞
T1 sequence (looked up): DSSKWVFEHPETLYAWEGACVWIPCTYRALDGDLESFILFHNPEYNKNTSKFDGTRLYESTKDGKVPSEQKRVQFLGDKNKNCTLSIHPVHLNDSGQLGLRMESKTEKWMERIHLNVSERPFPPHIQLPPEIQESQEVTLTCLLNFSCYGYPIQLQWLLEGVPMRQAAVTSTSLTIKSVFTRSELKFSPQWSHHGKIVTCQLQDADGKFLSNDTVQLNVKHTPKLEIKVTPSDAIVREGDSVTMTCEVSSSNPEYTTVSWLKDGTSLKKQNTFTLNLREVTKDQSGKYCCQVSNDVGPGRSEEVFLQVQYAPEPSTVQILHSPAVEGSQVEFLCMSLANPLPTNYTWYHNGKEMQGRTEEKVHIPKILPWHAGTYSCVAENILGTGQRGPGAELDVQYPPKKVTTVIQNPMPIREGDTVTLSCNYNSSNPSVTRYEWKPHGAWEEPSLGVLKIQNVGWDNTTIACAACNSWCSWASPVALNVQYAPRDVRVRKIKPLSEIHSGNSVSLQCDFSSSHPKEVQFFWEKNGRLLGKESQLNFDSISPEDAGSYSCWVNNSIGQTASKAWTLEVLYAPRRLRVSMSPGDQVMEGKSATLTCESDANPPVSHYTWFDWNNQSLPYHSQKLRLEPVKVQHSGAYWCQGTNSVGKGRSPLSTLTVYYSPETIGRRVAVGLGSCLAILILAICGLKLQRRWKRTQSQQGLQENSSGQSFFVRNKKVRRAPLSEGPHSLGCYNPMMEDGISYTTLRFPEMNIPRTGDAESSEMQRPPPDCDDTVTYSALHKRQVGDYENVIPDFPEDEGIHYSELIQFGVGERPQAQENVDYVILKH


What was measured:
[1] = target: T1, CD22抗原 (CD22 on Raji human lymphoma …); assay: flow cytometry on Raji human lymphoma cells, four purified batches of different production and storage time
[2] = target: T1, CD22抗原 (CD22 on Raji human lymphoma …); assay: competitive flow cytometry on Raji cells; unlabelled murine parent antibody as competitor of its FITC conjugate

| binding result [1] | binding result [2] | Binder |
| --- | --- | --- |
| binds | – | 嵌合抗体SM03 (chimeric anti-CD22 antibody SM03, human IgG1/human Kappa, variable regions modified at the N- and C-termini) (antibody, V domains shown, Expressed in SP2/0 cells, purified on Protein A; also called 嵌合单克隆抗体SM03; SM03试产第一批抗体) VH: QVQLQESGGGLVKPGGSLKLSCAASGFAFSIYDMSWVRQWPEKRLEWVAYISSGGGTTYYPDTVKGRFTISRDNAKNTLYLQMSSLKSEDTAMYYCARHSGYGSSYGVLFAYWGQGTLVTVSS VL: DIQLTQTTSSLSASLGDRVTISCRASQDISNYLNWYQQKPDGTVKLLIYYTSILHSGVPSRFSGSGSGTDYSLTISNLEQEDFATYFCQQGNTLPWTFGGGTKLEIKR |
| – | binds | 嵌合抗体SM03的鼠源母抗体 (murine parent antibody of SM03) (antibody, V domains shown, Whole mouse hybridoma antibody (mouse IgG heavy chain, kappa light chain by the cloning primers); also called 鼠源抗体; FITC-鼠源母抗体偶联物) VH: EVQLVESGGGLVKPGGSLKLSCAASGFAFSIYDMSWVRQWPEKRLEWVAYISSGGGTTYYPDTVKGRFTISRDNAKNTLYLQMSSLKSEDTAMYYCARHSGYGSSYGVLFAYWGQGTLVTVSA VL: DIQMTQTTSSLSASLGDRVTISCRASQDISNYLNWYQQKPDGTVKLLIYYTSILHSGVPSRFSGSGSGTDYSLTISNLEQEDFATYFCQQGNTLPWTFGGGTKLEIK |
